Changes are numbered by the printed parent chain.
B1: h25 (antibody, V domains shown)
VH: EVQLVESGGGLVKRGGSLRLSCAASGFTFSSYSMHWVRQAPGKGLEWVSSISSRSTYIYYADSVKGRFTISRDNAKNSLYLQMNSLSAEDTAVYYCARGSGSYYVFDYWGQGTLVTVSS
VL: ELVMTQSPATLSVSPGERATLSCRASQSVSSNLAWYQQKPGQAPRLLIYGASSRATNIPARFSGSGSGTEFTLTISSLQSEDFAVYYCQQYDNWPMYSFGQGTKLEIKR
B2: h1 (antibody, V domains shown)
VH: B1 VH with R14P, H35S, T56N, M83V, S87R
VL: EIVMTQSPATLSVSPGDRATLSCRASQSISSDLAWYQQKPGQAPRLLIYAASTRATGFPARFSGSGSGTEFTLTISSLQPEDFAVYYCQQYNNWPMYAFGQGTKLEIKR
B3: h27 (antibody, V domains shown)
VH: B1 VH with R14P, H35S, T56N, F68I, S87R
VL: B2 VL with I2L, V13M, S30R, A50D, F58I, T74S, P80S, A98T
B4: h4 (antibody, V domains shown)
VH: QVQLVESGGGLVKPGGSLRLSCAASGFTFSDHYMSWIRQTPGKGLEWVSYISSSGTYTNYADSVKGRFIISRDNAKNSLFLQMNSLRAEDTAVYYCAREGSPGGQGTLVTVSS
VL: DVVMTQSPLSLPVTLGQPASISCRSSQSLVFSDGNTYLNWFQQRPGQSPRRLIYKVSDRDPGVPERFSGSGSGTDFTLKISRVEAEDIGVYYCMQGSHWPFTFGPGTKVDIKR
B5: 18 (antibody, V domains shown)
VH: B4 VH with D31A, H32S, T40A, G55S, I69T, F80Y, N84D, V93M, Y95F
VL: DVVMTQSPLSLPVTLGQSASISCRSSQSLVYSDGDTFLSWFQQRPGQSPRRLIYMVSNRDPGVPDRFSGSGSGTDFTLKISRVEAEDVGIYYCMQGTNWPFTFGPGTRVDIKR
B6: h5 (antibody, V domains shown)
VH: B4 VH with T40A, S49A, G55S, N59K, A61G, I69T, F80Y
VL: B4 VL with N39S, Y54F, P61S, E65D, V83M, I88V, S97T, H98Q
B7: h19 (antibody, V domains shown)
VH: B4 VH with T28S, H32S, T40A, G55S, T56S, I69T, F80Y, A88V
VL: B4 VL with M4L, F31D, N39S, K55R, D58N, P61S, E65D, I88V, S97T
B8: h21 (antibody, V domains shown)
VH: B4 VH with D31A, T40A, S53P, G55S, T56S, N59V, I69T
VL: B4 VL with S26T, F31D, N39S, P61S, E65D, V90I, S97T
B9: h2 (antibody, V domains shown)
VH: B4 VH with D31A, T40A, S53P, G55S, T56S, N59V, I69T
VL: B4 VL with S25P, F31D, N39S, P61S, E65D, G73V, I88V, V90I, S97T
B10: h14 (antibody, V domains shown)
VH: B4 VH with K13E, T40A, K43R, S53N, T56G, I69T, F80Y
VL: B4 VL with I21M, F31D, N39S, P61S, E65D, S70G, I88V, V90I, S97T, H98R
B11: h22 (antibody, V domains shown)
VH: B4 VH with D31A, T40A, S53P, G55S, T56S, N59V, I69T
VL: B4 VL with S28N, F31D, N39S, P61S, E65D, S81N, V90I
B12: h16 (antibody, V domains shown)
VH: B4 VH with A23E, D31A, T40A, W47Y, G55S, T56S, I69T, F80Y
VL: B4 VL with M4L, F31D, N39S, Q42H, P61S, E65D, I88V, Q95E, S97T
B13: h20 (antibody, V domains shown)
VH: B4 VH with T28S, H32S, T40A, G55S, T56S, A61V, I69T, F80Y, A88V
VL: B4 VL with F31D, N39S, K55R, D58N, P61S, E65D, I88V, S97T, K112R
B14: h10 (antibody, V domains shown)
VH: B4 VH with A23E, D31A, T40A, W47Y, G55S, T56S, A61V, I69T, F80Y, A88V
VL: B4 VL with M4L, F31D, N39S, Q42H, P61S, E65D, I88V, Q95E, S97T
B15: h15 (antibody, V domains shown)
VH: B4 VH with K13R, T40A, S53G, G55S, T56S, N59K, I69T, F80Y
VL: DVVLTQSPLSLPVTLGQPASISCRSSQSLVFSDGNTFLAWFQQRPGQSPRRLIYRISNRDSGVPDRFSGSGSDTDFTLKISRVEAEDVGVYYCMQGTQWPFTFGPGTKVDIKR
B16: h13 (antibody, V domains shown)
VH: B4 VH with T28S, H32S, I37L, T40A, G55S, T56S, N59K, I69T, F80Y
VL: B15 VL with I21F, S32T, A39S, Q42L, I56V, S61P, D73G
B17: h17 (antibody, V domains shown)
VH: B4 VH with K13E, T40A, K43R, S53N, T56G, I69T, F80Y
VL: DVVMTQSPLSLPVTLGQPASMSCRSSQSLVDSDGNTYLSWFQQRPGQSPRRLIYKVSDRDSGVPDRFSGGGSGTDFTLKIRRVEAEDVGIYYCMQGTRWPFTFGPGTKVDIKR
B18: h11 (antibody, V domains shown)
VH: QVQLVESGGGLVKPGGSLRLSCEASGFTFSAHYMSWIRQAPGKGLEYVSYISGSSSYTNYVDSVKGRFTISRDNAKNSLYLQMNSLRVEDTAVYYCAREGSPGGQGTLVTVSS
VL: B17 VL with M4L, M21I, Q42H, G70S, R81S, I90V, Q95E, R98H
B19: h12 (antibody, V domains shown)
VH: QVQLVESGGGLVKPGGSLRLSCAASGFSFSDSYMSWLRQAPGKGLEWVSYISSSSSYTKYTDSVKGRFTISRDNAKNSLYLQMSSLRAEDTAVYYCAREGSPGGQGTLVTVSS
VL: B15 VL with L4M, I21F, S32T, A39S, Q42L, I56V, S61P, D73G
B20: h29 (antibody, V domains shown)
VH: QVQLVESGGGVVQPGRSLTLSCAASGFTFSRYGMHWVRQAPGKGLEWVTVITYDGRKKYYADSVKGRFTISRDNSQNTLSLQMNSLRAEDTAVYYCAKDLLIGYGMDVWGQGTTVTVSS
VL: DIVMTQSPDSLAVSLGERATIKCKSSQSVFFSSSNKNFLTWYQQKPGQPPKLLIYWASTRESGVPDRFSGSGSGTDFTLTINNLQAEDVTVYYCQQCFSTPYSFGQGTKLEIKR
B21: murine monoclonal antibody 1D6 (antibody, V domains shown)
VH: QIQLVQSGPELKKPGETVKISCKASGYTFTNYAVNWVIQAPGKGLKWMGWINAYTGEPTYADDFKGRFAFSLETSASTAYLQINNLKNEDMGIYFCARGGYDTYALDYWGQGTSVTVSS
VL: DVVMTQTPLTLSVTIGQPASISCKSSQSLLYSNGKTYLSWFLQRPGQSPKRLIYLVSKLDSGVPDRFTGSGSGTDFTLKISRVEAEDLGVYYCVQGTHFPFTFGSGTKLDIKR
notes: also called 106 (anti-zzs01); ID6
B22: murine monoclonal antibody F11 (antibody, V domains shown)
VH: EVQLQQSGPELVKPGASVKISCKTSGYTFTEYTMHWVKQSHGKTLEWIGGIYPNNSGTRYNQKFRGKATLTADKSSSTAYMELRSLTTEDSAVYYCHRYELYWYFDVWGAGTTVTVSS
VL: DIVLTQSPASLAVSLGQRATISCRASKSVSTAGYSYMHWYQQKPGQPPKLLIYLTSNLESGVPARFSGSGSGTDFTLNIHPVEEEDAATYYCQHSREVPYTFGGGTKLEIKR
notes: also called F11 (anti-zzs05)

Target: T1, GST-ZZS01 fusion protein (UniProt P08515 1-218 = GST)
T1 sequence (P08515 1-218, tags or fused parts left off): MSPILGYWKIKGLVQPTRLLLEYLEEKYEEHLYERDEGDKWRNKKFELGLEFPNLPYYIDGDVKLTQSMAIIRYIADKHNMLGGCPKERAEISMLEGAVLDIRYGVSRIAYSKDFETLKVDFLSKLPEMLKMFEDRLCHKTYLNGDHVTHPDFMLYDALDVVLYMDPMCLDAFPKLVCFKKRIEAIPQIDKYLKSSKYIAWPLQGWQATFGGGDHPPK
Experiment: Biacore SPR as in Example 3.3

Row | Binder | Kd
1 | B1 | 0.32 nM
2 | B2 | 0.289 nM
3 | B3 | 0.16 nM
4 | B4 | 2.86 nM
5 | B5 | 3.46 nM
6 | B6 | 10.1 nM
7 | B7 | 3.53 nM
8 | B8 | 1.48 nM
9 | B9 | 5.24 nM
10 | B10 | 4.39 nM
11 | B11 | 0.104 nM
12 | B12 | 2.17 nM
13 | B13 | 2 nM
14 | B14 | 0.0847 nM
15 | B15 | 5.78 nM
16 | B16 | 3.66 nM
17 | B17 | 3.18 nM
18 | B18 | 0.652 nM
19 | B19 | 6.03 nM

Target: T2, GST-ZZS05 fusion protein (UniProt P08515 1-218 = GST)
T2 sequence (P08515 1-218, tags or fused parts left off): as above
Experiment: Biacore SPR as in Example 3.3

Row | Binder | Kd
20 | B20 | 1.2 nM

Target: T1, GST-ZZS01 fusion protein
Experiment: Biacore SPR, 25 C; GST-antigen captured on anti-GST CM5 chip, antibody injected

Row | Binder | Kd | koff | kon
21 | B21 | 4.82 nM | 1.19e-05 s⁻¹ | 2480 M⁻¹ s⁻¹

Target: T2, GST-ZZS05 fusion protein
Experiment: as above

Row | Binder | Kd | koff | kon
22 | B22 | 6.9 nM | 0.000949 s⁻¹ | 137000 M⁻¹ s⁻¹
